Assay results: the nanobody polyreactivity screen of Harvey et al. (2022)

Assay: yeast display, Sf9 membrane polyspecificity reagent, FACS + sequencing; frameworks hold sequencing errors
Procedure, shortened: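 Nanobodies from a synthetic yeast display library (Saccharomyces cerevisiae BJ5465), induced 36–48 hours with galactose, were stained 1 hour at 4 °C with 10% biotinylated, detergent-solubilized Sf9 membrane reagent, enriched on streptavidin microbeads, then FACS-sorted. Anti-HA (expression) and streptavidin (reagent binding) fluorescence set low and high (top ~1%) gates. Polyreactivity labels come from the gate of origin. Genes were colony-PCR amplified, MiSeq 2 × 250 sequenced and filtered by CDR length.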

Row | Sequence | polyreactivity (PSR sort gate)
1 | QVQLVESGGGLVQAGGSLRLSCAASGSTFAANAMGWYRQAPGKERELVATISYRGGSTYYADSVKGRFTISRDNAKNTVYLQMNSLKPEDTAVYYCAAKLYYAFYSRYNYWGQGTQVTVSS | high polyreactivity
2 | QVQLVESGGGLVQAGGSLRLSCASSGRTFQYYAMGWYRQAPGKERELVAAISSRGGSTYYADSVKGRFTISRDNAKNTVYLQMNSLKPEDTAVYYCAAYVLPRQRVRSDYWGQGTQVTVSS | high polyreactivity
3 | QVQLVESGGGLVQAGGSLRLSCAASGFTNAMGWYRQAPGKERELVAAISYSGDSTNYADSVKGRFTISRDNAKNTVYLQMNSLKPEDSAVYYCNASSPYDYDWGQGTQVTVSS | low polyreactivity
4 | QDQLVDSGGGLVQAGGSLRLSCAASGSTGTYMGWYRQAPGKERELVAAIDNICDNTYNADSVKGRFTISRDNAKNTVYLQMNSLIPEDSAVYYCAADYYVYYPWLFEYDYWGQGTQVTVSS | low polyreactivity
5 | QVQLVESGGGLVQAGGSLRLSCAASGSTFGYYAMGWYRQAPGKERELVAAISVRGGRTYYADSVKGRFTISRDNAKNTVYLQMNSLKPEDTAVYYCATLLPGLGRYGYDYWGHGTQVTVSS | high polyreactivity
6 | QVQLVESGGGLVQAGGSLRLSCAASGIIFRTYAMGWYRQAPGKERELVAAISGTTGSKYYADSVKGRFTISRDNAKNTVYLQMNSLKPEDTAVYYCAADFYWYIRYDYWGQGTQVTVSS | low polyreactivity
7 | QVQLVESGGGLVQAGGSLRLSCAASGFIFPLYAMGWYRKAPGKERELVAAITWRGDTTSYADSVKGRFTISRDNAKNTVYLQMNSLKPEDTAVYYCAAEFYDWWYYGGGEYWGQGTQVTVSS | high polyreactivity
8 | QVQLVESGGGLVQAGGSLRLSCAASGFTFYRNAMGWYRQAPGKERELVAGISKRGGSTYYADSVKGRFTISRDNAKNTVYLQMNSLKPEDTAVYYCARGGYPGSAEYDYWGQGTQVTVSS | high polyreactivity
9 | QVQLVESGGGLVQAGGRLRLSCAASGRTFRRYTMGWDRQAPGKERELVAANTSGGRTNYADSVKGRFTISRDNAKNTVYLQMNSLKPEDTAVYYCNAQNEIWRVTFSPYDRWGYDYWGQGTQVTVSA | low polyreactivity
10 | QVQLVESGGGLVQAGGSLRLSCAASGFTFVYYAMGWYRQEPGKERELVAAISRSGGSTYYADSVKGRFTISRDNAKNTVYLQMNSLKPEDTEVYYCAAVTYANYYYDAYYYWGQGTQVTVSS | high polyreactivity
11 | QDQLEESGGCLVQAGGSLRLSCAASGRIFYGYVMRWYRQAPGKERELVAAINQSGTSTYYADSVKGRFTISRDYAKNTVYLQMNSLKPEDTAVYYCAKDWAYRRHWVGFYYWGQGTQVTVSS | low polyreactivity
12 | QDQLVESGGALVQAGRSLRLSCAASGIIYIYYAMGWYIQAPGKERELVAAISGSGDSTYYADSVKGRFTISRDNAKNTVYLQMNSLKPEDTAVYYCARRSPNPYSIYYYWGQGTQVTVSS | high polyreactivity
13 | QVQLVESGGGLVQAGGSLRLSCAASGFTFSYYAMGWYRQAPGKERELVAAITSGGSTYYADSVKGRFTISRDNAKNTVYLQMNSLKPEDTAVYYCNARGYGTLNVRRERMDYWGQGTQVTVSS | high polyreactivity
14 | QVQLVESGGGLVQSGGSLRLSCAASGFTFGGYAMGWYRQAPAKERELVAAISQSGGRTYYADSVKGRFTISRDNAKITVYLQMNSLKPEDTAVYYCAKPSTTYYQRGDYWGQGTQVTVSS | high polyreactivity
15 | QVQLVESGGGLVQAGGSLRLSCGASGNTINVNTMGWYRQGPGKERELVAAINSGDNTNYADSVKGRFTISRDNAKNTVYLQMNSLNPVDTAVYSCAAQDYARGVVPGRRAIGYWGQCTQVTVSS | high polyreactivity
16 | QVQLVESGGGLVQAGGSLRLSCAASGLIFGPYAMGWYRQAPGKERELVAGISRGGSTYYADSVKGRFTISRDNAKNTVYLQMNSLKPEDTAVYYCNAYTYPPYYSKWVRYRYDYWGQGTQVTVSS | high polyreactivity
17 | QVQLVESGGGLVQAGGSLSLSCAASGRTIIRNAMGWYRQAPGKERELVAAINSGGITNYADSVKGRFTISRDNAKNTVYLKMNSLKPEDTAVYYCNARGSYPPYRSYGYWGQGTQVTVSS | low polyreactivity
18 | QVQLVESGGGLVQAGGSLRLSCAASGRTISYAMGWYRQAPGKERELVAAIRYRGGSTYYADSVKGRFTISRDNAKNTVYLQMNSQKPEDTAVYYCAAQDSYTPPILFRRGYLRYDYWGQGTQVTVSS | low polyreactivity
19 | QVQLVESGGGLVQAGGSLRLSFAASGSIFKGNVMGWYRQAPGKERELVAGISRRGTSTYYADSVKGRFTISRDNAKNSVYLQMNSLKPEDSAVYYCAKRYYTYGYDYWGQGTQVTVSS | high polyreactivity
20 | QVQLVESGGGLVQAGGSLRLSCAASGSTFTPYAMGWYRQAPGKERELVAAISSTGGITYYADSVKGRFTISRDNAKNTVYLQMNSLKPEDTAVYYCAADAYYYGYEYWGQGTQVTVSS | high polyreactivity
21 | QVQLVESGGGLVQAGGSLRLSCAASGSIFGIYAMGWYRQAPGKERELVAAISWSGGSTYYADSVKGRFTISRDNAKNTVYLQMNSLKPEDTAVYYCNADVQLFGWWYGMDYWGQGTQVTVSS | high polyreactivity
22 | QVQRVESGGGLVQAGGSLRLSCAASGSIFYQYAMGWYRQAPGKEREVVAAITIGGSTNYADSVKGRFTISRDNAKNTVYLQMNSLKPEDTAVYYCNADKNWYGHEYDYWGQGTQVTVSS | low polyreactivity

Row | Sequence | polyreactivity (PSR sort gate)
23 | QVQLVESGGGLVQAGGSLRLSSAASGSIFSTNEMGCYRQAPGKERELVAAISVSGGSTYYADSVKGRFTISRDNAKNTVYLQMNSLKPEDTALYYCNADYTRGTMYYWGQGTQVTVSS | low polyreactivity
24 | QVQLVESVGGLVQAGGSLRLSCAASGGTFLFYGMGWYRQAPGKERELVAVITWSGGSTYYADSVKGRFTISRDNAKNTVYLQMKSLKPEDTAVYYCNAANTGSPDYQSIGYNFNYWGQGTQVTVSS | low polyreactivity
25 | QVQLVETGGGLVQAGGSLRLSCAASGRTFSRNAMGWYRQAPGKERELVAAISQRGVSTYYADSVKGRFTISRDNAKNTVYLQMNSLKPEDTAVYYCNTRGTYRYDYWGQGTQVTVSS | low polyreactivity
26 | QLQLGESGRGGVQAGGSLRVSCAPSGLPFIYYAMGWYRPAPGKVRELVATISQSGSSTYYADSVKGRFTSSRDHATNTVDLQMNSLKPADTAVDYCNVSSVRWARFDYWGQGTQVTVSS | high polyreactivity
27 | QVQLVESGGGLVQAGGSLRLSCADSGLTFRRYAMGWYRQAPGKERELVAAITRGGSTNYADSVKGRFTISRVNAKNTVYLQMNSLKPEDTAVYFCAAVYSTRSTSYWMDYWGQGTQVTVSS | high polyreactivity
28 | QVQLVESGGGLVQAGGSLRLSCAASGYIFWGNAMGWYRQAPGKERELVAAISYIGGSTYYADSVKGRFTISRDNAKNTVYLQMNSLKPEDTAVYYCAKRVLHQPYYHGVSGRRYDYWGQGTQVTVSS | high polyreactivity
29 | QVQLVESGGGLVQAGGSLRFSCAASGSIFGYYSLGWYRQAPGKERELVASITFRDGSTYYADSVKGRFTISRDNAKNTVYLQMNSLKPEDTAVYYCAARYYRRYFSDYDYWGQGTQVTVSS | low polyreactivity
30 | QVQLVESGGGLVHAGGSLRLSCAASGFSFNTYAMGWYRQAPGKERELVADISSGGSTNYADSVKGRFTISRDNAKNTVFLQMNSLKPEDTAVYYCSADYYFLDWYDYWGQGTQVSVSS | low polyreactivity
31 | QVQLVESGGGLVQAGGSLRLSCAASGITFFRYAMGWYRQAPGKERELVAAITTSGSSTFYADSVKGRFTISRDNAKNTVYLQMNSLTPEDTAVYYCATDYERYTWVGYLVTYYYWGQGTQVTVSS | high polyreactivity
32 | QVQLVESGGGLVQAGGSLRLSCAASGRSFDVNAMGWYRQAPGKERELVAAISTRGGGTYYADSVKGRFTISRDNAKTTVYLQMNSLKPEDTAVYYCNVVRRYGGRGFDYWGQGTQVTVSS | low polyreactivity
33 | QVQLVESGGGLDLAGGSLRLSCAASGSTFWRYAMGWYCQAPGKERELVAAISYTGTSTYSADSVKGRFTISRDNAKNTVYLQMNSLKPEDTAVYYCAAVFVGLVTGYDYSWGQGTQVNVSS | low polyreactivity
34 | QVQLVESGGGLVQAGGSLRLSCAASGGTFKFYAMGWYRQAPGKERELVAAISRRGGNTYYADSVKGRFTISRDNAKNTVYLQMNSLKPEDTAVYYCAVDYRSTGFGYWGQGTQVTVSS | high polyreactivity
35 | QVHLVESGGGLVQAGGSLRLSCAASGFTFGVYAMGWYRQAPGKEREFVAAISTTVGSTYYADSVKGRFTISRDNAKNTVYLQLNSLKPEDTAVYYCAAEYTGYINYYIYEYWGQGTQVTVSS | low polyreactivity
36 | QVQLVESGGGLVQAGGSLRLSCAASGSIFWYNAMGWYRQAPGKERELVASISYSGAITYYADSVKGRFTISRDNAKNTVYLQMNSLKPEDTAVYYCNAEHYLPGYDWSEYDSWGQGTQVTVSS | low polyreactivity
37 | QVQLVESGVGLVQAGGSLRLSCAASGNILGYNAIGWYRQAPGKETELVAAISWIGGSTYYADSVKGRFTISRDNAKNTVYLQMNSLKPEDTAVYYCAARYRTYFTYEYWGQGTQVTVSS | low polyreactivity
38 | QVQLVESGGGLVQAGGSLRLSCAASGRTFRYYAMGWYRQAPGKERELVAAISQTGARTYYADSVKGRFTISRDNAKNTVYLQMNSLKPEDTAVYYCNAYSRSGHQSDGYDYWGQGTQVTVSS | high polyreactivity
39 | QDQLVESDAGLVQAGGSLRLSCAASGRIFLGNAMGRSIQPPGNERELVAAITYSGRSTYYSDSVKGRLTISRDNAKNTLYLQMNSLKPEDTAVYYCAARQYWTTDLPFQRYYYWGPGTQVTVSS | low polyreactivity
40 | QVQLVESGGGLVQAGGSLRLSCAASGRTFSGNTMGWYRQAPGKERELVAVINSGTRTYYADSVKGRFTISRDNAKNTVYLHMNSLKPEDTAVYYCATRSKSPSTKYGYWGQGTQVTVSS | high polyreactivity
41 | QVQLEDSGGGLVQAGGSLLLSCPASGRIRYGMGWYRQAPGKERELVATITRGGSTNYADSVKGRFTISRDNAKNTVFLKMISLKPEDTAVYYCNAGSSWYYWRGYAYDYWGQGTQVSVSS | high polyreactivity
42 | QVQLVESGGGLVQAGGSLRLICAASGFTFRAYAMGWYRQAPGKERELVAAISTVGGSTYYADSVKGRFTISRDNAKNTVYLQMNSLKPEETAVYYCAARRRTGREYGYWGKGTQVTVSS | high polyreactivity
43 | QVQLVESGGGLVQAGGSLRVSCAASGRILNPNAMGWYRQAPGKERELVADISSGGSTYADSVKGRFTISRDNAKNTVYLQMNSLKPEDTAVYYCAKPGYEEFYREYDSWGQGTQVNVSS | low polyreactivity
